Results taken from patent US20060115477A1 (Bristol-Myers Squibb, published 2006).

Biological target: T1, neuropilin-1 (human, UniProt O14786 22-923)
T1 construct: whole, on cells; On intact cells in FACS and cell assays; pulled down from Triton X-100 lysate of HT1080 cells in the immunoprecipitation, identified as the full length form by MALDI peptide mass fingerprint; also called NP-1; VEGF165R
Experiment: competition FACS on HT1080 cells preincubated with VEGF165 (legend of FIG. 17)
Protocol: ScFv's were labeled with fluorescein isothiocyanate (Molecular Probes, # F-1906) according to the instructions of the manufacturer. HT1080 cells were preincubated with a control scFv, a NP-1-binding scFv's (e.g. scFv8, scFv13 or scFv22) (both at 25 μg/ml) or VEGF₁₆₅ (R&Dsystems, #293-VE/CF) ([…]) for 2 hours at 0° C. and the fluorescein labeled NP-1-binding scFv (5 μg/ml) was added for 30 min. at 0° C. Bound fluorescein labeled scFv were detected by flow cytometry and the geometric mean fluorescence intensity was recorded. In order to determine if NP-1-binding scFv has overlapping epitopes with VEGF and each other for binding to cell surface NP-1, a competition FACS with directly labeled scFv was performed. […] Furthermore, scFv8 and scFv24 have mutually overlapping epitopes whereas scFv13 has an epitope distinct from scFv8 and scFv24.

T1 sequence (O14786 22-923): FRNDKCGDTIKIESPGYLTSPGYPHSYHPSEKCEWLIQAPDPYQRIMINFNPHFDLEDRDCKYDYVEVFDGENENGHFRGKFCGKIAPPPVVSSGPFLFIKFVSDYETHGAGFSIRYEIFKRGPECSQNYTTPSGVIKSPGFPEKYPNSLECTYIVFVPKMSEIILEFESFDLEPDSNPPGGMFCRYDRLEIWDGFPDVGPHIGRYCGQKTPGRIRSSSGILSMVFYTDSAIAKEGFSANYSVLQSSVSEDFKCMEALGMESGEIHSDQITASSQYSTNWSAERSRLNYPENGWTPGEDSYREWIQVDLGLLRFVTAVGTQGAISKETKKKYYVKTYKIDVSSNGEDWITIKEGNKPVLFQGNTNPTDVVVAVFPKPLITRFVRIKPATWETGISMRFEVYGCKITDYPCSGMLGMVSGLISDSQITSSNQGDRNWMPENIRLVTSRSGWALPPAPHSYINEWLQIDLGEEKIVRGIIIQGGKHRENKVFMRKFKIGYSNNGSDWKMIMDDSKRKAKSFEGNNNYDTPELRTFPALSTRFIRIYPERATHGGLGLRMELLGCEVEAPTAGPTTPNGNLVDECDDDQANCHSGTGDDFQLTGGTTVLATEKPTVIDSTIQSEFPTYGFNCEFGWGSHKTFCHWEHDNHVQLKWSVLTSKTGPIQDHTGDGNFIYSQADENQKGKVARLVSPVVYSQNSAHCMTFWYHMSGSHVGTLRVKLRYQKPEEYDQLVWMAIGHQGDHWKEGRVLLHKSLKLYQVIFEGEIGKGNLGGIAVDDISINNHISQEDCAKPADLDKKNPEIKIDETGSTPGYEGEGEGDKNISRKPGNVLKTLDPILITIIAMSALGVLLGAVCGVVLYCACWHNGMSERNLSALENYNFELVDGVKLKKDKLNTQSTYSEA

B1: VEGF165 (R&Dsystems, #293-VE/CF) (ligand, human, UniProt P15692-4 27-191, looked up)
chain: APMAEGGGQNHHEVVKFMDVYQRSYCHPIETLVDIFQEYPDEIEYIFKPSCVPLMRCGGCCNDEGLECVPTEESNITMQIMRIKPHQGQHIGEMSFLQHNKCECRPKKDRARQENPCGPCSERRKHLFVQDPQTCKCSCKNTDSRCKARQLELNERTCRCDKPRR
notes: mature; also called recombinant human VEGF
binding result: binds
